According to IntAct's records for PubMed 33368531:

Molecular target: T1, ofd1_human OFD1 (UniProt O75665)
T1 sequence: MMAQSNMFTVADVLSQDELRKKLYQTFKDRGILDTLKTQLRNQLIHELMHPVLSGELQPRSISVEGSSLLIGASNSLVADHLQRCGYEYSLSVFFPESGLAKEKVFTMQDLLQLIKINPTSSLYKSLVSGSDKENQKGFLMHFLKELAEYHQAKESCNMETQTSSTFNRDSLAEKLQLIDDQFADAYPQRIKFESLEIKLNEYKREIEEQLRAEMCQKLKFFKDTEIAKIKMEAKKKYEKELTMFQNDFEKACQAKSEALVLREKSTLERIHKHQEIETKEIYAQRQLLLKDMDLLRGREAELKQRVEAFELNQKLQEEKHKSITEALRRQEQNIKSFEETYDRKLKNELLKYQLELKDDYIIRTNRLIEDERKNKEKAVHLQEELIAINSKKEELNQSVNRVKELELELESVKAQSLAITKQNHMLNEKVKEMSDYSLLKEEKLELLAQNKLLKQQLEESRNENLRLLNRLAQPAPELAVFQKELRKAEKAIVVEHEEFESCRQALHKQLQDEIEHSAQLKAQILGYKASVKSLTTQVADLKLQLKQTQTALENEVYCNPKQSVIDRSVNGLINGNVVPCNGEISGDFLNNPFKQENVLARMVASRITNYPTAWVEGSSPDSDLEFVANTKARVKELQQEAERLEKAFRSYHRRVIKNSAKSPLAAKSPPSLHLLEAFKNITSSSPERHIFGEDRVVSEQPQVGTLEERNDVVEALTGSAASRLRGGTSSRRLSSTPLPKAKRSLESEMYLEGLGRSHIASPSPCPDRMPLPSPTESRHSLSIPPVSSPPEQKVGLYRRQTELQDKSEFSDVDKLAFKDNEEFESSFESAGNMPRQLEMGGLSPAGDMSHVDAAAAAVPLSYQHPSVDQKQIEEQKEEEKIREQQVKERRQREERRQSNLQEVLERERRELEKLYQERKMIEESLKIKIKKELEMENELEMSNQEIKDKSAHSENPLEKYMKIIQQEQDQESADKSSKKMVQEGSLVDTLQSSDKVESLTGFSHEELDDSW

- effect of a mutation on the interaction: disrupting interaction
Substance: Microtubule-associated protein 1 light chain 3 beta (Homo sapiens) (from UniProt Q9GZQ8) F52A;L53A
